Data from PMC8975821, “TOX4 facilitates promoter-proximal pausing and C-terminal domain dephosphorylation of RNA polymerase II in human cells” (Communications Biology, 2022).

Molecular target: T1, 3× Flag-tagged TOX4 (UniProt O94842 1-621)
T1 construct: TOX4, cDNA cloned into pFASTBAC.1; Also used as the parent (on) of the region row from the co-IP with TOX4 fragments, whose own constructs are not described; also called 3× Flag-TOX4; source: High Five cells infected with baculovirus, purified (anti-Flag M2 magnetic beads, eluted with 3× Flag peptide); also purified from High Five cells as the TOX4-PP1α complex
T1 sequence (looked up): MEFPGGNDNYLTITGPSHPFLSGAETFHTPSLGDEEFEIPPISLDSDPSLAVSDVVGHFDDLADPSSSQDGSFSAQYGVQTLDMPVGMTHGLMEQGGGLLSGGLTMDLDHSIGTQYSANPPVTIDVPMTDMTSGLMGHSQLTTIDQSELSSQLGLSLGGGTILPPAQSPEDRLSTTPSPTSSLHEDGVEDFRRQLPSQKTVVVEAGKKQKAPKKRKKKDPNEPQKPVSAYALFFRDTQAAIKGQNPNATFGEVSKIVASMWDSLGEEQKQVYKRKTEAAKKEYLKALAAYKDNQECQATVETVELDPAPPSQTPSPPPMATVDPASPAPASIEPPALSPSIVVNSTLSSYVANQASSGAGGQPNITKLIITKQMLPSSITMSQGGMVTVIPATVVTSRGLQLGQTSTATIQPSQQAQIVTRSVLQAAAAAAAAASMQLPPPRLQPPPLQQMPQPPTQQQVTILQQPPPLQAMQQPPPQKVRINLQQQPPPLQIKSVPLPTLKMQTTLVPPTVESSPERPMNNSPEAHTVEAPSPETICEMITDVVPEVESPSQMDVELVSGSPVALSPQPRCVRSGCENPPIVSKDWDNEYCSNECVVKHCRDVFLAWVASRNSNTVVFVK
Test: co-IP; in vitro binding assay of individually purified TOX4 and PP1α, β or γ; PP1 co-immunoprecipitated with TOX4; Western blot, quantified by ImageJ
Settings: both partners purified

B1: His-tagged PP1β (enzyme, UniProt P62140 1-327, looked up)
chain: MADGELNVDSLITRLLEVRGCRPGKIVQMTEAEVRGLCIKSREIFLSQPILLELEAPLKICGDIHGQYTDLLRLFEYGGFPPEANYLFLGDYVDRGKQSLETICLLLAYKIKYPENFFLLRGNHECASINRIYGFYDECKRRFNIKLWKTFTDCFNCLPIAAIVDEKIFCCHGGLSPDLQSMEQIRRIMRPTDVPDTGLLCDLLWSDPDKDVQGWGENDRGVSFTFGADVVSKFLNRHDLDLICRAHQVVEDGYEFFAKRQLVTLFSAPNYCGEFDNAGGMMSVDETLMCSFQILKPSEKKAKYQYGGLNSGRPVTPPRTANPPKKR
notes: PP1β, catalytic subunit of protein phosphatase 1 beta; cDNA cloned into pFASTBAC.1; also called His-PP1β; source: High Five cells infected with baculovirus, purified (HisPur Ni-NTA magnetic beads, imidazole elution)
- binding result: binds
